The labels stand for the following.
B1: FGF-18^Δ51, O76093 52-207 (ligand)
chain: MLRLYQLYSRTSGKHIQVLGRRISARGEDGDKYAQLLVETDTFGSQVRIKGKETEFYLCMNRKGKLVGKPDGTSKECVFIEKVLENNYTALMSAKYSGWYVGFTKKGRPRKGPKTRENQQDVHFMKRYPKGQPELQKPFKYTTVTKRSRRIRPTHPA
modifications: here or on the partner: biotinylated in the immobilized receptor assays (sites not given)
B2: FGF-18^Δ37, O76093 38-207 (ligand)
chain: MENQTRARDDVSRKQLRLYQLYSRTSGKHIQVLGRRISARGEDGDKYAQLLVETDTFGSQVRIKGKETEFYLCMNRKGKLVGKPDGTSKECVFIEKVLENNYTALMSAKYSGWYVGFTKKGRPRKGPKTRENQQDVHFMKRYPKGQPELQKPFKYTTVTKRSRRIRPTHPA
modifications: here or on the partner: biotinylated in the immobilized receptor assays (sites not given)
B3: FGF-18^Δ45, O76093 46-207 (ligand)
chain: MDVSRKQLRLYQLYSRTSGKHIQVLGRRISARGEDGDKYAQLLVETDTFGSQVRIKGKETEFYLCMNRKGKLVGKPDGTSKECVFIEKVLENNYTALMSAKYSGWYVGFTKKGRPRKGPKTRENQQDVHFMKRYPKGQPELQKPFKYTTVTKRSRRIRPTHPA
modifications: here or on the partner: biotinylated in the immobilized receptor assays (sites not given)
B4: FGF-18 (recombinant wild type, mature form without the signal peptide), O76093 29-207 (ligand)
chain: MENVDFRIHVENQTRARDDVSRKQLRLYQLYSRTSGKHIQVLGRRISARGEDGDKYAQLLVETDTFGSQVRIKGKETEFYLCMNRKGKLVGKPDGTSKECVFIEKVLENNYTALMSAKYSGWYVGFTKKGRPRKGPKTRENQQDVHFMKRYPKGQPELQKPFKYTTVTKRSRRIRPTHPA
modifications: here or on the partner: biotinylated in the immobilized receptor assays (sites not given)

The values that follow come from patent publication US20130225493A1.

The assay deals with FGFR3-IIIc stably expressed on FDCP cells, P22607. Put plainly: cell-based or functional assay.
FGFR3-IIIc stably expressed on FDCP cells, P22607, sequence (P22607 23-806): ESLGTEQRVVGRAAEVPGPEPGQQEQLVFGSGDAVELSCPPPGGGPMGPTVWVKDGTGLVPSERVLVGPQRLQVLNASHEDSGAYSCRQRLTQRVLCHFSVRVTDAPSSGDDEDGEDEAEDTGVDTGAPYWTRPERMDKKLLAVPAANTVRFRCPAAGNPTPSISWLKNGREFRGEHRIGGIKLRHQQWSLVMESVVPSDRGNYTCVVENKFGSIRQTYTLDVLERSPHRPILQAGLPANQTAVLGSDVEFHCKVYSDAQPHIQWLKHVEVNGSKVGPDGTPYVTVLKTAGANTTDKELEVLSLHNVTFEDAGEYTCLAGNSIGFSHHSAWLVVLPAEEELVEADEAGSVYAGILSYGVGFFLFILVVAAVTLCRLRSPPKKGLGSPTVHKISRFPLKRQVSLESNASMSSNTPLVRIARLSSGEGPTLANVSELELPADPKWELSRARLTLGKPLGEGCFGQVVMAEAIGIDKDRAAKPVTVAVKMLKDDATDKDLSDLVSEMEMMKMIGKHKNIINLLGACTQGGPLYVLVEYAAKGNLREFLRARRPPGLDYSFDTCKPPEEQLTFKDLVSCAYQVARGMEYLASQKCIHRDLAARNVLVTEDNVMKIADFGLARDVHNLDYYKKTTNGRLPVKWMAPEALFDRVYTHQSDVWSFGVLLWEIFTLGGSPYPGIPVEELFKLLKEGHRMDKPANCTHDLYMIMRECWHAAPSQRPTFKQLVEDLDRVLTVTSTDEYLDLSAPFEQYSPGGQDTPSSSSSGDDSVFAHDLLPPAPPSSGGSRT
In turn, B1 gave an EC50 scores of FGF ligands in cell proliferation of FDCPR3 of 3.97 ng/mL.

As for B2, the EC50 scores of FGF ligands in cell proliferation of FDCPR3 stood at 3.14 ng/mL.

Turning to B3, the EC50 scores of FGF ligands in cell proliferation of FDCPR3 turned out to be 5.44 ng/mL.

With B4, the EC50 scores of FGF ligands in cell proliferation of FDCPR3 came to 15.4 ng/mL.
